B1: KB001 mouse Fab VL T52L (Fab, V domains shown)
VH: EVQLKQSGPGLVAPSQSLSITCTVSGFSLSIYSVHWVRQPPGKGLEWLGMIWGGGSSDYNSALKSRLSISKDNSKSQVFLKMNSLQTDDTAMYYCARNGNFYAMDYWGQGTSVTVSS
VL: QIVLTQSPAIMSASLGERVTMTCTASSSVSSSFLHWYQQKPGSSPQLWIYSLSNLASGVPARFSGSGSGTSYSLTISSMEAEDAATYYCHQYHHSPYIYTFGGGTKLEIK
B2: KB001 mouse Fab VL S53A (Fab, V domains shown)
VH: EVQLKQSGPGLVAPSQSLSITCTVSGFSLSIYSVHWVRQPPGKGLEWLGMIWGGGSSDYNSALKSRLSISKDNSKSQVFLKMNSLQTDDTAMYYCARNGNFYAMDYWGQGTSVTVSS
VL: QIVLTQSPAIMSASLGERVTMTCTASSSVSSSFLHWYQQKPGSSPQLWIYSTANLASGVPARFSGSGSGTSYSLTISSMEAEDAATYYCHQYHHSPYIYTFGGGTKLEIK
B3: KB001 mouse Fab VL T52M (Fab, V domains shown)
VH: EVQLKQSGPGLVAPSQSLSITCTVSGFSLSIYSVHWVRQPPGKGLEWLGMIWGGGSSDYNSALKSRLSISKDNSKSQVFLKMNSLQTDDTAMYYCARNGNFYAMDYWGQGTSVTVSS
VL: QIVLTQSPAIMSASLGERVTMTCTASSSVSSSFLHWYQQKPGSSPQLWIYSMSNLASGVPARFSGSGSGTSYSLTISSMEAEDAATYYCHQYHHSPYIYTFGGGTKLEIK
B4: KB001 mouse Fab VL S53W (Fab, V domains shown)
VH: EVQLKQSGPGLVAPSQSLSITCTVSGFSLSIYSVHWVRQPPGKGLEWLGMIWGGGSSDYNSALKSRLSISKDNSKSQVFLKMNSLQTDDTAMYYCARNGNFYAMDYWGQGTSVTVSS
VL: QIVLTQSPAIMSASLGERVTMTCTASSSVSSSFLHWYQQKPGSSPQLWIYSTWNLASGVPARFSGSGSGTSYSLTISSMEAEDAATYYCHQYHHSPYIYTFGGGTKLEIK
B5: KB001 mouse Fab VL S53D (Fab, V domains shown)
VH: EVQLKQSGPGLVAPSQSLSITCTVSGFSLSIYSVHWVRQPPGKGLEWLGMIWGGGSSDYNSALKSRLSISKDNSKSQVFLKMNSLQTDDTAMYYCARNGNFYAMDYWGQGTSVTVSS
VL: QIVLTQSPAIMSASLGERVTMTCTASSSVSSSFLHWYQQKPGSSPQLWIYSTDNLASGVPARFSGSGSGTSYSLTISSMEAEDAATYYCHQYHHSPYIYTFGGGTKLEIK
B6: KB001 mouse Fab VL S53C (Fab, V domains shown)
VH: EVQLKQSGPGLVAPSQSLSITCTVSGFSLSIYSVHWVRQPPGKGLEWLGMIWGGGSSDYNSALKSRLSISKDNSKSQVFLKMNSLQTDDTAMYYCARNGNFYAMDYWGQGTSVTVSS
VL: QIVLTQSPAIMSASLGERVTMTCTASSSVSSSFLHWYQQKPGSSPQLWIYSTCNLASGVPARFSGSGSGTSYSLTISSMEAEDAATYYCHQYHHSPYIYTFGGGTKLEIK
B7: KB001 mouse Fab VL S53R (Fab, V domains shown)
VH: EVQLKQSGPGLVAPSQSLSITCTVSGFSLSIYSVHWVRQPPGKGLEWLGMIWGGGSSDYNSALKSRLSISKDNSKSQVFLKMNSLQTDDTAMYYCARNGNFYAMDYWGQGTSVTVSS
VL: QIVLTQSPAIMSASLGERVTMTCTASSSVSSSFLHWYQQKPGSSPQLWIYSTRNLASGVPARFSGSGSGTSYSLTISSMEAEDAATYYCHQYHHSPYIYTFGGGTKLEIK

In this assay the target is HRgpA-6H (Porphyromonas gingivalis) (UniProt P28784). Put plainly: ELISA, FASEBA Fab on coated HRgpA-6H. For orientation: An ELISA detects its analyte on a solid surface through an enzyme-linked reagent.
Chain of UniProt P28784 (P28784 228-991): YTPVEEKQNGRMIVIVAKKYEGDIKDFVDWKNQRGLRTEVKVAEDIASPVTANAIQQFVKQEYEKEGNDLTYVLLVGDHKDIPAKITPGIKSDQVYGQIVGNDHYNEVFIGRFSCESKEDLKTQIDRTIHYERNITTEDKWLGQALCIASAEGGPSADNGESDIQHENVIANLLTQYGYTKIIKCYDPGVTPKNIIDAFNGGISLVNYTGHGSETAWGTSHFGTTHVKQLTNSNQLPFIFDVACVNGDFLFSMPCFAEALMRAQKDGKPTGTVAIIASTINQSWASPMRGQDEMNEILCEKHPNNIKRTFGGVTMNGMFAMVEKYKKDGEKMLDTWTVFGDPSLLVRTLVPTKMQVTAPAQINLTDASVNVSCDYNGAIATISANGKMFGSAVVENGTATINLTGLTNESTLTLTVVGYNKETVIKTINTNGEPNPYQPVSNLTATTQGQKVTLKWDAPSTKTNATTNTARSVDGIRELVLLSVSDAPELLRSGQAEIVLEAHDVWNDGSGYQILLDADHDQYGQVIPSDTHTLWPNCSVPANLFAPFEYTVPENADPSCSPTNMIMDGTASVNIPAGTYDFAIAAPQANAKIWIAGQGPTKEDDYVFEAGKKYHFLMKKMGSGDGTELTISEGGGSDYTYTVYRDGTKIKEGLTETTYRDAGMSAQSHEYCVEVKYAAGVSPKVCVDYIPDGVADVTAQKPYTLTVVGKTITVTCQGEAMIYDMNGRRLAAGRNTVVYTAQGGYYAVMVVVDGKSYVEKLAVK
As for B1, the OD450nm worked out at 0.769 and the Ratio OD(Variant)/OD(WT) came to 0.977.
The matching figures for B2: 0.784 and 0.996.
On to B3, for which the OD450nm came to 0.662 and the Ratio OD(Variant)/OD(WT) amounted to 0.841.
The matching figures for B4: 0.727 and 0.923.
The matching figures for B5: 0.775 and 0.984.
On the same counts, the results for B6 are 0.697 and 0.885.
Take B7: the OD450nm is 0.637 and the Ratio OD(Variant)/OD(WT) was determined as 0.809.

The values above are taken from patent publication US20230365662A1.
